{
  "source": "the RNAGym collection of RNA variant scans (doi:10.1021/acssynbio.7b00057)",
  "parents": {"B1": {"name": "Pistol ribozyme (parent)", "chain": "GGGUCGUUGUUCCAUAAUCGCGUGGAUAUGGCACGCAAGUUUCUACCGGGCACCGUAAAUGUCCGACUGGAGCCGUUCGGGCGGCUAUAAACAGACCUCAGGCCCGAAGCGUGGCGGCACCUGCCGCCGGUGGUAAAAAAGAUCGGAAGAGCACACGUCU"}},
  "data": [
    {"variants_of": "B1", "assay": "aptazyme ON/OFF ratio, guanine; higher = stronger switching; co-transcriptional cleavage with and without guanine", "values": [
      {"variant": "GGGUCGCACUUAAAUAAUCGCGUGGAUAUGGCACGCAAGUUUCUACCGGGCACCGUAAAUGUCCGACUGGAGCCGUUCGGGCGGCUAUAAACAGACCUCAGGCCCGAAGCGUGGCGGCACCUGCCGCCGGUGGUAAAAAAGAUCGGAAGAGCACACGUCU", "note": "[U7C U8A G9C C12A C13A]", "aptazyme ON/OFF ratio": 1.15},
      {"variant": "GGGUCGCACUUAUAUAAUCGCGUGGAUAUGGCACGCAAGUUUCUACCGGGCACCGUAAAUGUCCGACUGGAGCCGUUCGGGCGGCUAUAAACAGACCUCAGGCCCGAAGCGUGGCGGCACCUGCCGCCGGUGGUAAAAAAGAUCGGAAGAGCACACGUCU", "note": "[U7C U8A G9C C12A C13U]", "aptazyme ON/OFF ratio": 1.15},
      {"variant": "GGGUCGCACUUAGAUAAUCGCGUGGAUAUGGCACGCAAGUUUCUACCGGGCACCGUAAAUGUCCGACUGGAGCCGUUCGGGCGGCUAUAAACAGACCUCAGGCCCGAAGCGUGGCGGCACCUGCCGCCGGUGGUAAAAAAGAUCGGAAGAGCACACGUCU", "note": "[U7C U8A G9C C12A C13G]", "aptazyme ON/OFF ratio": 1.05},
      {"variant": "GGGUCGCACUUUCAUAAUCGCGUGGAUAUGGCACGCAAGUUUCUACCGGGCACCGUAAAUGUCCGACUGGAGCCGUUCGGGCGGCUAUAAACAGACCUCAGGCCCGAAGCGUGGCGGCACCUGCCGCCGGUGGUAAAAAAGAUCGGAAGAGCACACGUCU", "note": "[U7C U8A G9C C12U]", "aptazyme ON/OFF ratio": 1.05},
      {"variant": "GGGUCGCACUUACAUAAUCGCGUGGAUAUGGCACGCAAGUUUCUACCGGGCACCGUAAAUGUCCGACUGGAGCCGUUCGGGCGGCUAUAAACAGACCUCAGGCCCGAAGCGUGGCGGCACCUGCCGCCGGUGGUAAAAAAGAUCGGAAGAGCACACGUCU", "note": "[U7C U8A G9C C12A]", "aptazyme ON/OFF ratio": 1.17},
      {"variant": "GGGUCGCACUUGCAUAAUCGCGUGGAUAUGGCACGCAAGUUUCUACCGGGCACCGUAAAUGUCCGACUGGAGCCGUUCGGGCGGCUAUAAACAGACCUCAGGCCCGAAGCGUGGCGGCACCUGCCGCCGGUGGUAAAAAAGAUCGGAAGAGCACACGUCU", "note": "[U7C U8A G9C C12G]", "aptazyme ON/OFF ratio": 1.13},
      {"variant": "GGGUCGCAAUGAGAUAAUCGCGUGGAUAUGGCACGCAAGUUUCUACCGGGCACCGUAAAUGUCCGACUGGAGCCGUUCGGGCGGCUAUAAACAGACCUCAGGCCCGAAGCGUGGCGGCACCUGCCGCCGGUGGUAAAAAAGAUCGGAAGAGCACACGUCU", "note": "[U7C U8A G9A U11G C12A C13G]", "aptazyme ON/OFF ratio": 1.21},
      {"variant": "GGGUCGCAAUGAUAUAAUCGCGUGGAUAUGGCACGCAAGUUUCUACCGGGCACCGUAAAUGUCCGACUGGAGCCGUUCGGGCGGCUAUAAACAGACCUCAGGCCCGAAGCGUGGCGGCACCUGCCGCCGGUGGUAAAAAAGAUCGGAAGAGCACACGUCU", "note": "[U7C U8A G9A U11G C12A C13U]", "aptazyme ON/OFF ratio": 1.09},
      {"variant": "GGGUCGCAAUGAAAUAAUCGCGUGGAUAUGGCACGCAAGUUUCUACCGGGCACCGUAAAUGUCCGACUGGAGCCGUUCGGGCGGCUAUAAACAGACCUCAGGCCCGAAGCGUGGCGGCACCUGCCGCCGGUGGUAAAAAAGAUCGGAAGAGCACACGUCU", "note": "[U7C U8A G9A U11G C12A C13A]", "aptazyme ON/OFF ratio": 1.19},
      {"variant": "GGGUCGCACUUGGAUAAUCGCGUGGAUAUGGCACGCAAGUUUCUACCGGGCACCGUAAAUGUCCGACUGGAGCCGUUCGGGCGGCUAUAAACAGACCUCAGGCCCGAAGCGUGGCGGCACCUGCCGCCGGUGGUAAAAAAGAUCGGAAGAGCACACGUCU", "note": "[U7C U8A G9C C12G C13G]", "aptazyme ON/OFF ratio": 1.14},
      {"variant": "GGGUCGCACUUGAAUAAUCGCGUGGAUAUGGCACGCAAGUUUCUACCGGGCACCGUAAAUGUCCGACUGGAGCCGUUCGGGCGGCUAUAAACAGACCUCAGGCCCGAAGCGUGGCGGCACCUGCCGCCGGUGGUAAAAAAGAUCGGAAGAGCACACGUCU", "note": "[U7C U8A G9C C12G C13A]", "aptazyme ON/OFF ratio": 1.14},
      {"variant": "GGGUCGCACUUGUAUAAUCGCGUGGAUAUGGCACGCAAGUUUCUACCGGGCACCGUAAAUGUCCGACUGGAGCCGUUCGGGCGGCUAUAAACAGACCUCAGGCCCGAAGCGUGGCGGCACCUGCCGCCGGUGGUAAAAAAGAUCGGAAGAGCACACGUCU", "note": "[U7C U8A G9C C12G C13U]", "aptazyme ON/OFF ratio": 1.09},
      {"variant": "GGGUCGCAAUGUCAUAAUCGCGUGGAUAUGGCACGCAAGUUUCUACCGGGCACCGUAAAUGUCCGACUGGAGCCGUUCGGGCGGCUAUAAACAGACCUCAGGCCCGAAGCGUGGCGGCACCUGCCGCCGGUGGUAAAAAAGAUCGGAAGAGCACACGUCU", "note": "[U7C U8A G9A U11G C12U]", "aptazyme ON/OFF ratio": 1.37},
      {"variant": "GGGUCGCAAUGACAUAAUCGCGUGGAUAUGGCACGCAAGUUUCUACCGGGCACCGUAAAUGUCCGACUGGAGCCGUUCGGGCGGCUAUAAACAGACCUCAGGCCCGAAGCGUGGCGGCACCUGCCGCCGGUGGUAAAAAAGAUCGGAAGAGCACACGUCU", "note": "[U7C U8A G9A U11G C12A]", "aptazyme ON/OFF ratio": 1.07},
      {"variant": "GGGUCGCAAUGGCAUAAUCGCGUGGAUAUGGCACGCAAGUUUCUACCGGGCACCGUAAAUGUCCGACUGGAGCCGUUCGGGCGGCUAUAAACAGACCUCAGGCCCGAAGCGUGGCGGCACCUGCCGCCGGUGGUAAAAAAGAUCGGAAGAGCACACGUCU", "note": "[U7C U8A G9A U11G C12G]", "aptazyme ON/OFF ratio": 1.12},
      {"variant": "GGGUCGCAAUGUUAUAAUCGCGUGGAUAUGGCACGCAAGUUUCUACCGGGCACCGUAAAUGUCCGACUGGAGCCGUUCGGGCGGCUAUAAACAGACCUCAGGCCCGAAGCGUGGCGGCACCUGCCGCCGGUGGUAAAAAAGAUCGGAAGAGCACACGUCU", "note": "[U7C U8A G9A U11G C12U C13U]", "aptazyme ON/OFF ratio": 1.18},
      {"variant": "GGGUCGCAAUGUAAUAAUCGCGUGGAUAUGGCACGCAAGUUUCUACCGGGCACCGUAAAUGUCCGACUGGAGCCGUUCGGGCGGCUAUAAACAGACCUCAGGCCCGAAGCGUGGCGGCACCUGCCGCCGGUGGUAAAAAAGAUCGGAAGAGCACACGUCU", "note": "[U7C U8A G9A U11G C12U C13A]", "aptazyme ON/OFF ratio": 1.16},
      {"variant": "GGGUCGCAAUGUGAUAAUCGCGUGGAUAUGGCACGCAAGUUUCUACCGGGCACCGUAAAUGUCCGACUGGAGCCGUUCGGGCGGCUAUAAACAGACCUCAGGCCCGAAGCGUGGCGGCACCUGCCGCCGGUGGUAAAAAAGAUCGGAAGAGCACACGUCU", "note": "[U7C U8A G9A U11G C12U C13G]", "aptazyme ON/OFF ratio": 1.14}
    ]}
  ]
}
